Assay results published in the supplement of paper PMC10065799, “High-throughput profiling of sequence recognition by tyrosine kinases and SH2 domains using bacterial peptide display” (eLife, 2023).

Tests used:
AncSZ = assay: phosphorylation enrichment, bacterial display (enrichment ratio); higher = better substrate or ligand; peptides without Tyr show the background
EPHB1 = EPHB1 (UniProt P54762); assay: as above
EPHB2 = EPHB2 (UniProt P29323); assay: as above
FGFR1 = FGFR1 (UniProt P11362); assay: as above
FGFR3 = FGFR3 (UniProt P22607); assay: as above
Fer (mouse) = assay: as above
Fes = Fes (UniProt P07332); assay: as above
Sequence of Fes (P07332 whole entry, looked up): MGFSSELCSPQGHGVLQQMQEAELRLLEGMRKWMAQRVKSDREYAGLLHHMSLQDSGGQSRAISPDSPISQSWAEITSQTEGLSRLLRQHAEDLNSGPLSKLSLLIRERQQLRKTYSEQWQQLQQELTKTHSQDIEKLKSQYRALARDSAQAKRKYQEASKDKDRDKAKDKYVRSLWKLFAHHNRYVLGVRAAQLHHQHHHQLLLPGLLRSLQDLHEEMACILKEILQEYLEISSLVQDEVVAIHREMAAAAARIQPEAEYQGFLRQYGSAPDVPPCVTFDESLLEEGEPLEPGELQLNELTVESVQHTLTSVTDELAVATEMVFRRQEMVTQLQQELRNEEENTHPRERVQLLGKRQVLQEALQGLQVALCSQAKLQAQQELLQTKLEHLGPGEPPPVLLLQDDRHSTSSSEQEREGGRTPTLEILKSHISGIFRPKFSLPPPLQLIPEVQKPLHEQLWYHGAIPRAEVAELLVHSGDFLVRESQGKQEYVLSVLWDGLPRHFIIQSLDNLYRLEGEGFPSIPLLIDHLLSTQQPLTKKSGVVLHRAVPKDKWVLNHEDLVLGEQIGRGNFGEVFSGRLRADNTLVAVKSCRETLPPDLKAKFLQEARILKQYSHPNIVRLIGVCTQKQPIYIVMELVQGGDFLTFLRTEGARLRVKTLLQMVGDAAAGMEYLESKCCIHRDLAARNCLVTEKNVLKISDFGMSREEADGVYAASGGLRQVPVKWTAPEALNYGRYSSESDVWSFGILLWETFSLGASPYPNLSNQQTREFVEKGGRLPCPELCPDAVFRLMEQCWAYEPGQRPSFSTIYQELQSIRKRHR

Fyn = Fyn (UniProt P06241); assay: as above
Sequence of Fyn (P06241 whole entry, looked up): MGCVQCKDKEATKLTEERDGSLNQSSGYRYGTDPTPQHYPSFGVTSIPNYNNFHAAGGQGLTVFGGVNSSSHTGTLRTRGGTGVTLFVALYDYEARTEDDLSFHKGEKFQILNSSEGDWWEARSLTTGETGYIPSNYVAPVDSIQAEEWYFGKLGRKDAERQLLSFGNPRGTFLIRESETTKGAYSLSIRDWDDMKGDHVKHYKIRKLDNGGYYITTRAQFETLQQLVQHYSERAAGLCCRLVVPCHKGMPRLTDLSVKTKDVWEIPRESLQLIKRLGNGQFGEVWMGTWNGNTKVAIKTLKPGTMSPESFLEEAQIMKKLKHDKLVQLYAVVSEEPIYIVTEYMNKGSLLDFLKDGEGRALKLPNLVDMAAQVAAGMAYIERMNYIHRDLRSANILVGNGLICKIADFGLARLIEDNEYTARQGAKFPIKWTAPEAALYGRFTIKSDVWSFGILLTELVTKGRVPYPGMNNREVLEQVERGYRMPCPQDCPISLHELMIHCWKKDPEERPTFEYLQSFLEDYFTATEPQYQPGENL

Hck = Hck (UniProt P08631); assay: as above
Sequence of Hck (P08631 whole entry, looked up): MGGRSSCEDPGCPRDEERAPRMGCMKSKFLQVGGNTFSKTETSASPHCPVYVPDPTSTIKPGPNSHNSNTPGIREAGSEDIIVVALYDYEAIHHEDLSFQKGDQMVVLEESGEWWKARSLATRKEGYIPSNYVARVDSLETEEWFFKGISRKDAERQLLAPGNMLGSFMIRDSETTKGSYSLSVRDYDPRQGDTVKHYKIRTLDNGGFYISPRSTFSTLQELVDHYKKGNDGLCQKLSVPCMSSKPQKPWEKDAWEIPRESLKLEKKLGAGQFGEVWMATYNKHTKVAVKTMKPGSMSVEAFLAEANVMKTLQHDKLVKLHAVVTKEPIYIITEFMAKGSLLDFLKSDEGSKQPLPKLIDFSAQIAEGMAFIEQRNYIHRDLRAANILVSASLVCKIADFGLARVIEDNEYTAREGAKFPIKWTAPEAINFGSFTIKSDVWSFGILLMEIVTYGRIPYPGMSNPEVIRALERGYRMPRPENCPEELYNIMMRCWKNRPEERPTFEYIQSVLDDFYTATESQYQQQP

Jak2 = Jak2 (UniProt O60674); assay: as above
Sequence of Jak2 (O60674 whole entry, looked up): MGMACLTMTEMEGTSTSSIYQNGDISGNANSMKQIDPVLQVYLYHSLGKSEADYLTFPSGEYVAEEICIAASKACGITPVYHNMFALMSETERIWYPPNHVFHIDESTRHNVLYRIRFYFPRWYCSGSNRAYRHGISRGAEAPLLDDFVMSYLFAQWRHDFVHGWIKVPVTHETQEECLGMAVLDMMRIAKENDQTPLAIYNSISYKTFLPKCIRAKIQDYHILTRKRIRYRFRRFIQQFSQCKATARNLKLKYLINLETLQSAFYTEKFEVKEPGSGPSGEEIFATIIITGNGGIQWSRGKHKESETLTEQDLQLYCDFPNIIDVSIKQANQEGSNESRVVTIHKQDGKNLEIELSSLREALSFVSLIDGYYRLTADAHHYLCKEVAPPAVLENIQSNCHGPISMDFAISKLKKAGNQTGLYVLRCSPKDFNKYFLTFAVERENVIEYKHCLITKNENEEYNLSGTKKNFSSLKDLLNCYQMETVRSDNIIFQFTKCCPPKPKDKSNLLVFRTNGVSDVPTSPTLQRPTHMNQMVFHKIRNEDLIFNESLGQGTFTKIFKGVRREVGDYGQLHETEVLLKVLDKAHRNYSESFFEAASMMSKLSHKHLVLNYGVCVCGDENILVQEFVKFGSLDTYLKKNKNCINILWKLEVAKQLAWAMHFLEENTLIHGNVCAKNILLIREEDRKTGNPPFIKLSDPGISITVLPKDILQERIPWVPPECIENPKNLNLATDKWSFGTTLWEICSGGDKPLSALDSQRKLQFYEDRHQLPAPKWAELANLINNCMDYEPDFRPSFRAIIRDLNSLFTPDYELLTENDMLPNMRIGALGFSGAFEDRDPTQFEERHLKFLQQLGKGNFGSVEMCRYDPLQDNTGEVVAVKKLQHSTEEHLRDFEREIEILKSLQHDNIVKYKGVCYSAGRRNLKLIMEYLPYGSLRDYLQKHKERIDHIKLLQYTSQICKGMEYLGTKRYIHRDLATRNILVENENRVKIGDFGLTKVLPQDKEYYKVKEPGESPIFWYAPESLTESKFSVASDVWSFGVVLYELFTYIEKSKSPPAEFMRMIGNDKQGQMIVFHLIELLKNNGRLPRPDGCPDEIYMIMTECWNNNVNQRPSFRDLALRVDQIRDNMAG

MERTK = MERTK (UniProt Q12866); assay: as above
Sequence of MERTK (Q12866 whole entry, looked up): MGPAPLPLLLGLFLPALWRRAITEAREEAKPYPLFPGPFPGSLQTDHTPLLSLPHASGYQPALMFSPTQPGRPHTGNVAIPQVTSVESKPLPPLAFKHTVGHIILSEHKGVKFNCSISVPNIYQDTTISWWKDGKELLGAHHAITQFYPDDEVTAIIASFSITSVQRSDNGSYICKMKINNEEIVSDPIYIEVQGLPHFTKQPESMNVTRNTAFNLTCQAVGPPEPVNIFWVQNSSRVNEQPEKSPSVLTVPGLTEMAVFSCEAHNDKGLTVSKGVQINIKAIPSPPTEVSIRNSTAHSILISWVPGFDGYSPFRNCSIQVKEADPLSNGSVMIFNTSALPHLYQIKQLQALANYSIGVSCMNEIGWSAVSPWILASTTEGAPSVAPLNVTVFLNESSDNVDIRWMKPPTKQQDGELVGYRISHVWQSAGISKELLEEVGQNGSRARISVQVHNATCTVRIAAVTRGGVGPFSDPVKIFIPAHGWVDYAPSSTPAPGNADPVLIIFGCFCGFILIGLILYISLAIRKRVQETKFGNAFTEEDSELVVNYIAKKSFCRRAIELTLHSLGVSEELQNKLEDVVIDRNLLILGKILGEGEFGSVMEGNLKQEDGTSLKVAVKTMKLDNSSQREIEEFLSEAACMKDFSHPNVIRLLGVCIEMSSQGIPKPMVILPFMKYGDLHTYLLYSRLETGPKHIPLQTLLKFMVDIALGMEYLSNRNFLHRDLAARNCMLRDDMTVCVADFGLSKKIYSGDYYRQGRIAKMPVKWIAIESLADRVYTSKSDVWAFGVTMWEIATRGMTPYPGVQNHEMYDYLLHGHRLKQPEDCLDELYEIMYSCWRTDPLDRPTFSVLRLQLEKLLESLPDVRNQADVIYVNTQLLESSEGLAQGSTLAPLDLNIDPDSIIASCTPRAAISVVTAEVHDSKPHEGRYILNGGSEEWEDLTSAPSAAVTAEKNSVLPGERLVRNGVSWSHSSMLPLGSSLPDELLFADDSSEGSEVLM

c-Abl (mouse) = assay: as above
c-Src = assay: as above
Grb2 SH2 = Grb2 SH2 (UniProt P62993); assay: SH2 binding enrichment of the phosphorylated peptide, bacterial display (enrichment ratio); higher = better substrate or ligand; peptides without Tyr show the background
SHP2-C SH2 = assay: as above
c-Src SH2 = assay: as above
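Throughout, for SH2 binding enrichment of the phosphorylated peptide, bacterial display: peptide library displayed on the E. coli surface as eCPX fusions, selected cells deep-sequenced, score is each peptide's frequency after selection divided by its frequency in the input.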
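Throughout, for phosphorylation enrichment, bacterial display: 11-residue human phosphosite peptides and single-mutation variants displayed on the E. coli surface, counted by deep sequencing, each peptide's frequency after selection divided by its frequency in the unselected input library; frequency after pTyr selection over input frequency; kinase dosed for 20-30% of maximal phosphorylation in three min.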

Sequence of EPHB2 (P29323 whole entry, looked up): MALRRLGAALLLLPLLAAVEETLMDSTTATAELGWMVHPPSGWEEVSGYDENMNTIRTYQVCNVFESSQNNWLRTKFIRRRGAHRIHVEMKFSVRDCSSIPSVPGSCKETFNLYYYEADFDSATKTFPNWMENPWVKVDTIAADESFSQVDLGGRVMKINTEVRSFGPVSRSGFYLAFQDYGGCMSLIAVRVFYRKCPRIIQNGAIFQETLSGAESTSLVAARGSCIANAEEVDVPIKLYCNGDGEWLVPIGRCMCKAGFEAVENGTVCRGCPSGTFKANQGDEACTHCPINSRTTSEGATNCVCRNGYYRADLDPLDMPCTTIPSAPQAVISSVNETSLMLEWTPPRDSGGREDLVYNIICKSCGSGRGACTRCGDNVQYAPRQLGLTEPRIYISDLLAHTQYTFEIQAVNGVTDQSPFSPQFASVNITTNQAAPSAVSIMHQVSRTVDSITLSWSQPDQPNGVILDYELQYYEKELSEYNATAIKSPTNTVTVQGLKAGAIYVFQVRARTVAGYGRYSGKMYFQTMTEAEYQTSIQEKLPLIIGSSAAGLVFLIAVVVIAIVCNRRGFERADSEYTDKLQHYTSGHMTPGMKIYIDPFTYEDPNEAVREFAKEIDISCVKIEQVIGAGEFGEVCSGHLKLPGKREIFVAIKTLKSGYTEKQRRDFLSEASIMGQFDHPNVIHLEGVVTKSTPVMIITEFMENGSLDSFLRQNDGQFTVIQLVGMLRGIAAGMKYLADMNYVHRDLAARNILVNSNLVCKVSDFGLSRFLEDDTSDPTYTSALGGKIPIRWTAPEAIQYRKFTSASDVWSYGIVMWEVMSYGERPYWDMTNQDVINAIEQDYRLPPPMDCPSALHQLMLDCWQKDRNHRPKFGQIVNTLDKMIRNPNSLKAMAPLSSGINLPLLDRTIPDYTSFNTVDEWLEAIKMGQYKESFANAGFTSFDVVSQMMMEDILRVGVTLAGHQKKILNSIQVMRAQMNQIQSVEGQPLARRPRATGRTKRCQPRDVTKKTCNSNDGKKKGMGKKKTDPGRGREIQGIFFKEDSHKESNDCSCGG

SH2 binding enrichment (Grb2 SH2)	SH2 binding enrichment (SHP2-C SH2)	SH2 binding enrichment (c-Src SH2)	Sequence	phosphorylation enrichment (AncSZ)	phosphorylation enrichment (EPHB1)	phosphorylation enrichment (EPHB2)	phosphorylation enrichment (FGFR1)	phosphorylation enrichment (FGFR3)	phosphorylation enrichment (Fer (mouse))	phosphorylation enrichment (Fes)	phosphorylation enrichment (Fyn)	phosphorylation enrichment (Hck)	phosphorylation enrichment (Jak2)	phosphorylation enrichment (MERTK)	phosphorylation enrichment (c-Abl (mouse))	phosphorylation enrichment (c-Src)
0.643	0.763	0.537	HVIKLYGACSQ [RET_Y791]	1.13	0.875	0.768	0.627	0.84	0.545	1.58	0.489	0.661	1.6	0.423	1.1	0.713
0.746	0.863	0.597	IDPFTYTPFGS [CYP3A4_Y432_I431T_YF]	0.724	0.431	0.705	0.486	0.523	0.587	0.851	0.91	1.18	0.755	0.561	0.581	2.88
0.712	0.779	0.404	IEELTYIIKQD [STX5_Y137]	1.33	0.55	0.578	0.551	0.665	0.411	1.52	0.461	0.528	1.25	0.469	0.801	0.554
0.802	0.819	0.454	IEPGIYIPEDD [XPNPEP3_Y455]	1.23	0.598	0.523	0.521	0.902	0.576	1.38	0.59	0.592	1.24	0.558	1.05	0.702
0.382	0.509	0.315	IFRASYFRRGD [LTK_Y676_YF]	0.923	0.431	0.438	0.465	0.469	0.439	0.879	0.512	0.613	0.668	0.571	0.63	0.582
0.832	0.767	0.447	IHHIDYFKETT [FGFR1_Y653_K656E_YF]	0.605	0.456	0.415	0.443	0.567	0.451	0.778	0.555	0.446	0.692	0.427	0.445	0.489
0.684	0.68	0.525	IKETHYMVDKC	0.8	0.447	0.531	0.489	0.543	0.507	0.944	0.46	0.448	0.804	0.437	0.652	0.403

The remaining lines, values behind:

Sequence	SH2 binding enrichment (Grb2 SH2)	SH2 binding enrichment (SHP2-C SH2)	SH2 binding enrichment (c-Src SH2)	phosphorylation enrichment (AncSZ)	phosphorylation enrichment (EPHB1)	phosphorylation enrichment (EPHB2)	phosphorylation enrichment (FGFR1)	phosphorylation enrichment (FGFR3)	phosphorylation enrichment (Fer (mouse))	phosphorylation enrichment (Fes)	phosphorylation enrichment (Fyn)	phosphorylation enrichment (Hck)	phosphorylation enrichment (Jak2)	phosphorylation enrichment (MERTK)	phosphorylation enrichment (c-Abl (mouse))	phosphorylation enrichment (c-Src)
IDPYTYTPFGS [CYP3A4_Y432_I431T]	0.92	0.885	1.17	1.3	0.563	0.6	3.24	2.25	0.698	0.914	7.04	3.36	0.907	1.16	0.63	6.82
IEPVIYVVQRR [ANOS1_Y217]	0.512	0.236	0.255	1.37	0.209	0.486	0.368	0.475	0.271	1.23	0.304	0.315	1.1	0.531	0.58	0.356
IFHENYNAGTF [CFI_Y421_YF]	0.869	0.684	0.479	0.612	0.36	0.388	0.473	0.465	0.435	0.647	0.461	0.417	0.615	0.415	0.578	0.456
IGDENYGEGSS [ACO2_Y665]	0.814	0.86	0.449	1.25	0.511	0.606	0.533	0.738	0.518	1.18	0.529	0.59	1.39	0.586	0.882	0.522
IGEGTSGVVFK [CDK2_Y15_Y15S_YF]	0.844	0.786	0.515	0.66	0.418	0.457	0.339	0.561	0.382	0.878	0.365	0.449	0.582	0.409	0.501	0.405
IGEGTYRQVFK [CDK13_Y716_G717R_YF]	0.732	0.505	0.41	0.693	0.603	0.582	0.488	0.654	0.474	0.973	0.485	0.634	0.715	0.348	0.558	0.386
IHFPPYTDWNQ [ALDH3B2_Y365_YF]	0.979	0.736	0.821	1.01	0.695	0.524	0.659	0.685	1.04	1.03	0.526	0.519	0.894	0.431	0.687	0.52
IKSSIYDNRKE [ARAP2_Y380]	0.934	0.741	0.445	1.13	0.307	0.321	0.538	0.504	0.355	0.725	0.366	0.753	0.586	0.416	0.518	0.58
ILILKYPIEHG [ACTA1_Y71_T68I]	2.07	1.72	1.58	1.07	0.612	0.479	0.525	0.807	0.694	1.29	0.39	0.488	1.11	0.424	0.818	0.491
